Literature values, collected in paper PMC8604983, “A glucagon analogue decreases body weight in mice via signalling in the liver” (Scientific Reports, 2021).

Conditions: in rodents
Experimental: Native glucagon has a half-life of approximately 2 min in rodents. To study the effects of sustained GCGR activation, we developed a glucagon analogue (GCG104) through modification of OXM with the aim of reducing its GLP-1R activity and decreasing its rate of clearance. Select amino acid substitutions were made and a C18 lipidated tail was added (Fig. 1a).

## glucagon [Native glucagon]
  half-life: approximately 2 min
